Consider 2 molecules from patent US20030108549A1 (GENETICS INSTITUTE, published 2003).

The target of this assay is T1, human MU-1 Ig fusion protein (human, UniProt Q9HBE5 20-235).
T1 construct: also called MUFc; human Ig fusion protein; not shown: Ig portion
As to the kind of experiment: Biacore; MU-1 Ig fusion immobilized on chip. The protocol:
Both human and murine Ig fusion proteins were constructed and immobilized on Biacore chips in an effort to identify the ligand for MU-1. A variety of cell culture conditioned media as well as a panel of known cytokines were evaluated for binding to MU-1. Some cytokines were also tested in combination with other receptor chains in the family to consider the possibility that MU-1 may require a second receptor chain for ligand binding. The following cytokines were tested and found to be negative for MU-1 binding: mIL-2, hIL-2, hIL-i5, mIL-7, TSLP, TSLP+IL7, TSLP+IL7R, TSLP+IL7g, TSLP+IL-2, TSLP+1L2+IL2Rbeta, IL2Rbeta, IL2Rgamma, IL7R, IL2+2Rbeta, IL2+2Rgamma, IL1 5+IL2Rbeta, 1L15+2Rgamma, 1IL7+2Rgamma, IL2+IL7R, IL1 5+IL7R, IL7+IL7R. Known receptors have been immobilized as well and tested for MUFc binding with negative results. IL-IS will bind to IL2Rb but not IL2Rg or MUFc.
(SPR reads the build-up and loss of mass on a sensor chip optically.)

T1 sequence (Q9HBE5 20-235): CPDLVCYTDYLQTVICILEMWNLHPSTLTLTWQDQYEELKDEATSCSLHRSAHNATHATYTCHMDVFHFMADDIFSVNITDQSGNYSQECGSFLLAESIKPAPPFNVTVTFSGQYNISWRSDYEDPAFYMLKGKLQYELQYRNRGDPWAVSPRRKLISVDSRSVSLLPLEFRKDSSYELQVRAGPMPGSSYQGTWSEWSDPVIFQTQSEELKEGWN

B1: mIL-7 (ligand, mouse, UniProt P10168 26-154, looked up)
chain: ECHIKDKEGKAYESVLMISIDELDKMTGTDSNCPNNEPNFFRKHVCDDTKEAAFLNRAARKLKQFLKMNISEEFNVHLLTVSQGTQTLVNCTSKEEKNVKEQKKNDACFLKRLLREIKTCWNKILKGSI
In the case of B1, the binding result is given as “no binding”.

B2: mIL-2 (ligand, mouse, UniProt P04351 21-169, looked up)
chain: APTSSSTSSSTAEAQQQQQQQQQQQQHLEQLLMDLQELLSRMENYRNLKLPRMLTFKFYLPKQATELKDLQCLEDELGPLRHVLDLTQSKSFQLEDAENFISNIRVTVVKLKGSDNTFECQFDDESATVVDFLRRWIAFCQSIISTSPQ
As to B2, the binding result was “no binding”.
